Assays:
[1] = target: T1, human IL-4 (human, UniProt P05112 25-153); experiment: cell-based or functional assay
T1 sequence (looked up): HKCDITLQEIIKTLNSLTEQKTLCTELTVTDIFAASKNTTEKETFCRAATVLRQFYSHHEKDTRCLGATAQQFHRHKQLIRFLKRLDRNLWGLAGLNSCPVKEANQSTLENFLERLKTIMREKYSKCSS

[2] = target: human IL-13 (human, UniProt P35225 35-146); experiment: cell-based or functional assay
Sequence of human IL-13 (P35225 35-146 limits assumed): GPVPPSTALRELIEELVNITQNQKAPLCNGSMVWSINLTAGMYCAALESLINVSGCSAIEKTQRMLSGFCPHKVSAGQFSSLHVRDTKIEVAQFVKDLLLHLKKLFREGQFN

a-hIL-4 IC50 [pM] [1]: 3.65 pM
a-hIL-13 IC50 [pM] [2]: 11.2 pM
B1: IL413TSLP-0252 (other)
heavy: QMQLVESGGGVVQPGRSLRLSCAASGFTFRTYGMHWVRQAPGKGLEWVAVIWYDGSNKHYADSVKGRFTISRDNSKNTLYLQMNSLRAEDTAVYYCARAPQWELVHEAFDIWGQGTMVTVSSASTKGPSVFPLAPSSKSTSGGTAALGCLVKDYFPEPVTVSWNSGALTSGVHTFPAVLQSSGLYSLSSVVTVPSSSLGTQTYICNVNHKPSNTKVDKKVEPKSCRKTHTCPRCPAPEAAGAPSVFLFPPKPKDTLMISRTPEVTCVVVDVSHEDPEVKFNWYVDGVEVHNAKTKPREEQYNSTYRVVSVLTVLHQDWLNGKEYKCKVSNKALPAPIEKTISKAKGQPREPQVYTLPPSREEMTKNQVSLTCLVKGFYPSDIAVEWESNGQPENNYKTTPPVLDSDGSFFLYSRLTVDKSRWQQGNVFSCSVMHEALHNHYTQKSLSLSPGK
chain 1: DIQMTQSPSSLSASVGDRVTITCKASESVDHFGWSLVHWYQQKPGKAPKLLIYRASNLESGVPSRFSGSGSGTDFTLTISSLQPEDFATYYCQQSNEDPWTFGGGTKVEIKRTVAAPSVFIFPPSDEQLKSGTASVVCLLNNFYPREAKVQWKVDNALQSGNSQESVTEQDSKDSTYSLSSTLTLSKADYEKHKVYACEVTHQGLSSPVTKSFNRGECGGGGSEVTLRESGPALVKPTQTLTLTCTFSGFSLSNFGEGLSWIRQPPGKGLEWLAHIYWDDDKRYNPSLKSRLTISKDTSRNQVVLTMTNMDPVDTATYYCARRETVFYWYFDVWGQGTTVTVSSASTKGPSVFPLAPSSKSTSGGTAALGCLVKDYFPEPVTVSWNSGALTSGVHTFPAVLQSSGLYSLSSVVTVPSSSLGTQTYICNVNHKPSNTKVDKKVEPKSCEKTHTCPECPAPEAAGAPSVFLFPPKPKDTLMISRTPEVTCVVVDVSHEDPEVKFNWYVDGVEVHNAKTKPREEQYNSTYRVVSVLTVLHQDWLNGKEYKCKVSNKALPAPIEKTISKAKGQPREPQVYTLPPSREEMTKNQVSLTCEVKGFYPSDIAVEWESNGQPENNYKTTPPVLDSDGSFFLYSKLTVDKSRWQQGNVFSCSVMHEALHNHYTQKSLSLSPGK
light 1: SYVLTQPPSVSVAPGQTARITCGGNNLGSKSVHWYQQKPGQAPVLVVYDDSDRPSWIPERFSGSNSGNTATLTISRGEAGDEADYYCQVWDSSSDHVVFGGGTKLTVLGQPKAAPSVTLFPPSSEELQANKATLVCLISDFYPGAVTVAWKADSSPVKAGVETTTPSKQSNNKYAASSYLSLTPEQWKSHRSYSCQVTHEGSTVEKTVAPTECS
light 2: DIQMTQSPSSLSASVGDRVTITCKASQSVDEDGDSYMNWYQQKPGKAPKLLIYAASNLESGVPSRFSGSGSGTDFTLTISSLQPEDFATYYCQQSNEDPPTFGGGTKVEIKRTVAAPSVFIFPPSDEQLKSGTASVVCLLNNFYPREAKVQWKVDNALQSGNSQESVTEQDSKDSTYSLSSTLTLSKADYEKHKVYACEVTHQGLSSPVTKSFNRGEC
chain 2: EVQLVESGGGLVQPGGSLRLSCAASGFTFSSYAMSWVRQAPGKGLEWVASISSGDTTYYPDSVKGRFTISRDNAKNSLYLQMNSLRAEDTAVYYCARNEGYYFGLTLWGQGTLVTVSSASTKGPSVFPLAPSSKSTSGGTAALGCLVKDYFPEPVTVSWNSGALTSGVHTFPAVLQSSGLYSLSSVVTVPSSSLGTQTYICNVNHKPSNTKVDKKVEPKSC

Source: US20240117030A1 (Pfizer, published 2024)
